From patent US20150219657A1
Blank lines part the entries; values can stand above or below the binder they belong to. Square brackets hold non-standard residues; d marks the D form. Ends that are not written are not given here. S1 = acylated D-Pra whose alkyne is clicked through a 1,2,3-triazole to acylated azidolysine-PEG2-biotin; dPra = C#CC[C@@H](N)C(=O)O

Columns and labels:
[1] = biological target: Active Akt2 (with N terminal His6 tag) (human) (UniProt P31751); assay: summary sentence of Example 1; method not given
[2] = biological target: Active Akt2 (with N terminal His6 tag) (human) (UniProt P31751); assay: single component ELISA, N-tL as surface-localized capture agent (FIG. 23A)
[3] = biological target: Active Akt2 (with N terminal His6 tag) (human) (UniProt P31751); assay: SPR, Biacore T100, biotinylated N-tL on SA chip, Akt2 protein as analyte, 10° C., 1:1 binding model
[4] = biological target: Active Akt2 (with N terminal His6 tag) (human) (UniProt P31751); assay: single-component ELISA, bi-L as detection agent (FIG. 23A, given there as EC50)
[5] = biological target: Active Akt2 (with N terminal His6 tag) (human) (UniProt P31751); assay: single-component ELISA, mono-L as detection agent (FIG. 23A, given there as EC50)

Chain of Active Akt2 (with N terminal His6 tag) (human) (P31751 other isoform, or with tags, fused parts or gaps): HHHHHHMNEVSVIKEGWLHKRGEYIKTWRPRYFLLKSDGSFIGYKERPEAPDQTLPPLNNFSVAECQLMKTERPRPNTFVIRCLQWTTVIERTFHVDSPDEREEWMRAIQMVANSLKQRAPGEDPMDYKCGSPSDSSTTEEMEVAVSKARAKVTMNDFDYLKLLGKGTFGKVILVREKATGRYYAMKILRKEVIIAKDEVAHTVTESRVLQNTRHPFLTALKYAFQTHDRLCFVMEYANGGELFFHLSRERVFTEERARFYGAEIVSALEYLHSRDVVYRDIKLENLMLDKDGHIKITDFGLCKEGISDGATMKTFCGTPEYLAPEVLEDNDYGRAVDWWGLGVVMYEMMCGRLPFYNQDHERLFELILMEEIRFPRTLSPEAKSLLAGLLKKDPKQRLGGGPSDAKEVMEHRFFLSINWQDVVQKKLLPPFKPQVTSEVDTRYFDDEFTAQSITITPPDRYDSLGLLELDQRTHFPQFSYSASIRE

affinity [1]: 20 nM
EC50 [2]: 19 nM
Kd [3]: 25 nM
B1: N-tL (designed binder)
peptide 1: [dW][dK][dV][dK][dL]
peptide 2: [dH][dN]G[dY][dF]
peptide 3: Ac-[dPra][dY][dY][dR][dF]G-NH2
modifications: triazole (positions not given here); not fully specified (N-terminus, bridges); also: C-terminal D-Pra clicked via triazole to L-azidolysine of S4, arm not given here, N-terminus coupled to S4 (azidolysine-PEG2-biotin)

affinity [4]: 1 µM
B2: bi-L (designed binder)
peptide 1: [dW][dK][dV][dK][dL]-NH2
peptide 2: [dH][dN]G[dY][dF][dPra]
modifications: also: arms joined via S3 linker (azide, PEG2-biotin) coupled to the wkvkl N-terminus, biotin-PEG2 label, triazole to a chain's N/C-terminus via S3 linker

affinity [5]: 3 µM
Binder: S1-[dW][dK][dV][dK][dL]-NH2 (designed binder) [mono-L]
